Experimental data: PMC8323898, “Examination of the roles of a conserved motif in the PriA helicase in structure-specific DNA unwinding and processivity”

Assays:
PriA wild-type [1] = molecular target: T1, PriA wild-type (Escherichia coli, UniProt P17888 1-732); assay: EMSA; three shifted bands; 5 mM EDTA; EMSA: 0.1-10 nM PriA, 1 nM fork, 50 mM Tris-HCl pH 8.0, 0.1 mg/mL BSA, 2 mM DTT, 5 mM EDTA, 6% glycerol, 30 min on ice, 4% PAGE; conditions: protein: recombinant; tags: N-terminal His6; label: radiolabel; fork 1:2, 60 bp parental duplex, two 38-nt ssDNA arms
PriA Arg187Ala [2] = molecular target: T2, PriA Arg187Ala (Escherichia coli, UniProt P17888 1-732, R187A); assay: EMSA; same as wild type; 5 mM EDTA; EMSA: 0.1-10 nM PriA, 1 nM fork, 50 mM Tris-HCl pH 8.0, 0.1 mg/mL BSA, 2 mM DTT, 5 mM EDTA, 6% glycerol, 30 min on ice, 4% PAGE; conditions: protein: recombinant; tags: His-tag; label: radiolabel; fork 1:2, 60 bp parental duplex, two 38-nt ssDNA arms
PriA Tyr190Ala [3] = molecular target: T3, PriA Tyr190Ala (Escherichia coli, UniProt P17888 1-732, Y190A); assay: as above; conditions: protein: recombinant; tags: His-tag; label: radiolabel; fork 1:2, 60 bp parental duplex, two 38-nt ssDNA arms
PriA triple variant [4] = molecular target: T4, PriA triple variant (Escherichia coli, UniProt P17888 1-732, W186A;R187A;Y190A); assay: as above; conditions: protein: recombinant; tags: His-tag; label: radiolabel; fork 1:2, 60 bp parental duplex, two 38-nt ssDNA arms
PriA Trp186Ala [5] = molecular target: T5, PriA Trp186Ala (Escherichia coli, UniProt P17888 1-732, W186A); assay: as above; conditions: protein: recombinant; tags: His-tag; label: radiolabel; fork 1:2, 60 bp parental duplex, two 38-nt ssDNA arms
PriA Arg187Ala [6] = molecular target: T2, PriA Arg187Ala; assay: EMSA; similar to wild type; 5 mM EDTA; EMSA: 0.1-10 nM PriA, 1 nM fork, 50 mM Tris-HCl pH 8.0, 0.1 mg/mL BSA, 2 mM DTT, 5 mM EDTA, 6% glycerol, 30 min on ice, 4% PAGE; conditions: protein: recombinant; tags: His-tag; label: radiolabel; fork 1:2 (60 bp) 2:3 (33 bp nascent lagging) 1:4 (38 bp nascent leading), 5-nt lagging gap
PriA Tyr190Ala [7] = molecular target: T3, PriA Tyr190Ala; assay: as above; conditions: protein: recombinant; tags: His-tag; label: radiolabel; fork 1:2 (60 bp) 2:3 (33 bp nascent lagging) 1:4 (38 bp nascent leading), 5-nt lagging gap
PriA triple variant [8] = molecular target: T4, PriA triple variant; assay: as above; conditions: protein: recombinant; tags: His-tag; label: radiolabel; fork 1:2 (60 bp) 2:3 (33 bp nascent lagging) 1:4 (38 bp nascent leading), 5-nt lagging gap
PriA Trp186Ala [9] = molecular target: T5, PriA Trp186Ala; assay: as above; conditions: protein: recombinant; tags: His-tag; label: radiolabel; fork 1:2 (60 bp) 2:3 (33 bp nascent lagging) 1:4 (38 bp nascent leading), 5-nt lagging gap
PriA wild-type [10] = molecular target: T1, PriA wild-type; assay: EMSA; one dominant shifted species; 5 mM EDTA; EMSA: 0.1-10 nM PriA, 1 nM fork, 50 mM Tris-HCl pH 8.0, 0.1 mg/mL BSA, 2 mM DTT, 5 mM EDTA, 6% glycerol, 30 min on ice, 4% PAGE; conditions: protein: recombinant; tags: N-terminal His6; label: radiolabel; fork 1:2 (60 bp) 2:3 (33 bp nascent lagging) 1:4 (38 bp nascent leading), 5-nt lagging gap

Measured: binding result

B1: two-stranded fork (1b-98/3L-98) (mixed)
DNA 1: GCAAGCCTTCTACAGGTCGACCGTCCATGGCGACTCGAGACCGCAATACGGATAAGGGCTGAGCACGCCGACGAACATTCACCACGCCAGACCACGTA
DNA 2: GACTATCTACGTCCGAGGCTCGCGCCGCAGACTCATTTAGCCCTTATCCGTATTGCGGTCTCGAGTCGCCATGGACGGTCGACCTGTAGAAGGCTTGC
binds: PriA wild-type [1] | PriA Arg187Ala [2] | PriA Tyr190Ala [3] | PriA triple variant [4] | PriA Trp186Ala [5]

B2: four-stranded fork (1b-98/3L-98/b-33/11b-38) (mixed)
DNA 1: B1 DNA 1
DNA 2: B1 DNA 2
DNA 3: AGTCTGCGGCGCGAGCCTCGGACGTAGATAGTC
DNA 4: TACGTGGTCTGGCGTGGTGAATGTTCGTCGGCGTGCTC
binds: PriA Arg187Ala [6] | PriA Tyr190Ala [7] | PriA triple variant [8] | PriA Trp186Ala [9] | PriA wild-type [10]
